The source of these data is patent US20020028202A1 (Biogen, published 2002).

Common to all, as to test: staining of transfected COS-7 cells, FACS
Experiment [1] has as its target T1, human gc chain mutant, LQN replaced by Ala (interdomain residues), myc-tagged, on COS-7 cells (human, UniProt P31785 23-369).
T1 construct: whole, on cells; not shown: 9 amino acid myc tag at the 5' end of the construct
T1 sequence (looked up): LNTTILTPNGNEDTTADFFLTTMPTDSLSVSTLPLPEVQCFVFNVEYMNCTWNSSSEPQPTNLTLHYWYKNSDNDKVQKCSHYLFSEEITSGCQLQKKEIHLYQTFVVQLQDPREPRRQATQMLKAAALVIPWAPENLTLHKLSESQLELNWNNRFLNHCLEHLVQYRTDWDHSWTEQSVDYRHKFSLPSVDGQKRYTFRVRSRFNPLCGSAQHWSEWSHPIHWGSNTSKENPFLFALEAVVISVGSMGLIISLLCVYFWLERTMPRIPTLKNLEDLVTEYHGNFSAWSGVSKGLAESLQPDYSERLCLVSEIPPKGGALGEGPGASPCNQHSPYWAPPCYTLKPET
As for the experimental part:
(§1) COS-7 cells are transiently transfected with 20 ug of DNA encoding the gc chain mutant or wildtype cDNA and 180 ug of herring sperm carrier DNA. After 2-3 days, COS-7 cells are harvested and analyzed by immnunofluorescent staining with anti-gc chain mAbs. MAbs are used at 10 ug/ml in PBS-1% BSA-0.02% sodium azide and allowed 30 minutes to bind to 1×10⁶ COS-7 cells. Cells are then washed 2 times, and bound mAb is detected with PE-conjugated goat anti-mouse Fc specific antibodies. The % of positive cells staining with the anti-gc chain mAb over an irrelevant control Ig is determined for a given gc chain mutant and for wildtype gc chain. […] Data are adjusted for any differences in level of expression of a mutant vs. wildtype constructs by measuring the binding of a mAb specific for a 9 amino acid myc tag engineered at the 5′ end of each gc chain construct. […] Values reduced from 100% indicate amino acid mutations which affect mAb binding.
(§2) The value “100%” indicates no effect of mutation and lower percentages indicate greater losses in binding as a result of the sequence change.

Experiment [2] addresses T2, human gc chain mutant, FNP replaced by Ala (Domain 2 Loop FQ), myc-tagged, on COS-7 cells (human, UniProt P31785 23-369).
T2 construct: whole, on cells; not shown: 9 amino acid myc tag at the 5' end of the construct
T2 sequence (looked up): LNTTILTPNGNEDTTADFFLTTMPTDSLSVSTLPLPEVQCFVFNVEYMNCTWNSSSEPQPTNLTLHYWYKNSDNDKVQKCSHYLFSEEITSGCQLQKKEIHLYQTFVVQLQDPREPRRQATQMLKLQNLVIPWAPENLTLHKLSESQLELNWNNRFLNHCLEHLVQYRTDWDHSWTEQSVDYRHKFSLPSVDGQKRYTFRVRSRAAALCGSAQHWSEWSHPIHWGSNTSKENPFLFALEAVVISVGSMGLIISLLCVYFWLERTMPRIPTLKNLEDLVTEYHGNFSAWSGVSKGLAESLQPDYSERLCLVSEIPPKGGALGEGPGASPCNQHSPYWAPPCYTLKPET
Here is the method:
as §1, §2

The target of experiment [3] is T3, human gc chain mutant, RFL replaced by Ala (Domain 2 Loop BC), myc-tagged, on COS-7 cells (human, UniProt P31785 23-369).
T3 construct: whole, on cells; not shown: 9 amino acid myc tag at the 5' end of the construct
T3 sequence (looked up): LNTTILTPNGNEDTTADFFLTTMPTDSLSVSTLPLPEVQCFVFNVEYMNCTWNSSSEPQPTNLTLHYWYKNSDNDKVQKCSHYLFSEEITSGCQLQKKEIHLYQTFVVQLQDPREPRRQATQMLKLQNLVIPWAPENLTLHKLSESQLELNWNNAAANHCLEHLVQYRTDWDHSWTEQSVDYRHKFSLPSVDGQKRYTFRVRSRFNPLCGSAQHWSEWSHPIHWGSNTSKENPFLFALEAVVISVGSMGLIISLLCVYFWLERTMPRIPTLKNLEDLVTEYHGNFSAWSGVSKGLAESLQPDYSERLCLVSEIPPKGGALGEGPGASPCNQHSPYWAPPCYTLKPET
Here is the method:
as §1, §2

Experiment [4] addresses T4, human gc chain mutant, FNV replaced by Ala (Domain 1 Loop AB), myc-tagged, on COS-7 cells (human, UniProt P31785 23-369).
T4 construct: whole, on cells; not shown: 9 amino acid myc tag at the 5' end of the construct
T4 sequence (looked up): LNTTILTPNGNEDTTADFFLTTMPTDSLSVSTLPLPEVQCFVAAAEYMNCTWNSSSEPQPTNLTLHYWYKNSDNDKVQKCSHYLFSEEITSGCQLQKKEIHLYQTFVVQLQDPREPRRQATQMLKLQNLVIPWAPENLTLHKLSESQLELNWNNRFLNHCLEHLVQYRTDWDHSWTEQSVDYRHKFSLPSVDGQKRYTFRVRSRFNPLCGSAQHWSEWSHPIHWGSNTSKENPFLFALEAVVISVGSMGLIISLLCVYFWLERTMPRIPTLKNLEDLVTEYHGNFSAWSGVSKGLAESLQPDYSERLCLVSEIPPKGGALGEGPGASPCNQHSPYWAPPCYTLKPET
Here is the method:
as §1, §2

Experiment [5] has as its target T5, human gc chain mutant, VEY replaced by Ala (Domain 1 Loop AB), myc-tagged, on COS-7 cells (human, UniProt P31785 23-369).
T5 construct: whole, on cells; not shown: 9 amino acid myc tag at the 5' end of the construct
T5 sequence (looked up): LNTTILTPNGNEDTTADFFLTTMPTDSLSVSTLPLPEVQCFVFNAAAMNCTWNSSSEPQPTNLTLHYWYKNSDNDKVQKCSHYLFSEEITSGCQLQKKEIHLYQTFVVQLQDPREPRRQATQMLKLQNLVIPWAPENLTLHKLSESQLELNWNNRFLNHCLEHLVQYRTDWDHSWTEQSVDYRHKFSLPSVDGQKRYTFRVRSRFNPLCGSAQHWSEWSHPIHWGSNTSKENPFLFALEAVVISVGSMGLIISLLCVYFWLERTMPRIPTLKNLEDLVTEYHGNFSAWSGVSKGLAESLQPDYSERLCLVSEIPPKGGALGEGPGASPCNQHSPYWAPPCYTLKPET
As for the experimental part:
as §1, §2

B1: CP.B8 monoclonal antibody (murine anti-human gc chain, hybridoma ATCC HB-12107) (antibody, V domains shown)
VH: LQESGPGLVAPSQSLSITCTVSGFSLTSYGVHWVRQPPGKGLEWLGVIWAGGSTNYNSALMSRLNINRDNSKSQIFLKMNSLQTDDTAIYYCAREGSTVDSMDYWGQGTTVT
VL: DIVMTQSHKFMSTSVGDSITITCKASQDVTTAVAWYQQKPGQSPKLLIYWASTRHTGVPDRFTGSGSGTDYTLTISSVQAEDLALYYCQQHYITPWTFGGGTKLEI
notes: Used unconjugated and biotin-conjugated; also called CP.B8 mAb; mAb CP.B8
For B1, the “% binding to mutant gc chain/wildtype gc chain” value in experiment [1] worked out at 4%; in experiment [2], 28%; in experiment [3] it was 89%; in experiment [4], 9%; in experiment [5], 0%.
